Experiments:
[1] = system: RELA TALEN11-1R (right monomer) (synthetic (Xanthomonas TALE)?); test: cell_activity; conditions: TALEN pair mRNA 2 ng/ul zygote injection, 8 of 39 piglets; 21% of embryos tested in vitro; assayed as pair with left monomer; left/right assignment to …
[2] = system: RELA TALEN11-1L (left monomer) (synthetic (Xanthomonas TALE)?); test: cell_activity; conditions: TALEN pair mRNA 2 ng/ul zygote injection, 8 of 39 piglets; 21% of embryos tested in vitro; assayed as pair with right monomer; left/right assignment to …

| Sequence | activity (% edited of piglets born) [1] | activity (% edited of piglets born) [2] |
| --- | --- | --- |
| AGTACCCTGAGGCTAT (double strand) [RELA TALEN right half-site] | 21 | – |
| GCCCCCCCACACAGCTG (double strand) [RELA TALEN left half-site] | – | 21 |

From patent US20150313192
